Measurements as given in patent US20220267444A1 (CTTQ AKESO SHANGHAI BIOMED TECH, published 2022).
Changes are numbered by the printed parent chain. Names may count otherwise.

B1: 14C12H1L1(hG1DM) (antibody, human IgG1, kappa, L234A L235A)
heavy: not shown
light: DIQMTQSPSSMSASVGDRVTFTCRASQDINTYLSWFQQKPGKSPKTLIYRANRLVSGVPSRFSGSGSGQDYTLTISSLQPEDMATYYCLQYDEFPLTFGAGTKLELKRTVAAPSVFIFPPSDEQLKSGTASVVCLLNNFYPREAKVQWKVDNALQSGNSQESVTEQDSKDSTYSLSSTLTLSKADYEKHKVYACEVTHQGLSSPVTKSFNRGEC
notes: Humanized anti-PD-1 IgG1 mutant of 14C12H1L1(hG1WT) with L234A and L235A in the heavy chain
B2: 14C12H1L1(hG4) (antibody, human IgG4 S228P, kappa)
heavy: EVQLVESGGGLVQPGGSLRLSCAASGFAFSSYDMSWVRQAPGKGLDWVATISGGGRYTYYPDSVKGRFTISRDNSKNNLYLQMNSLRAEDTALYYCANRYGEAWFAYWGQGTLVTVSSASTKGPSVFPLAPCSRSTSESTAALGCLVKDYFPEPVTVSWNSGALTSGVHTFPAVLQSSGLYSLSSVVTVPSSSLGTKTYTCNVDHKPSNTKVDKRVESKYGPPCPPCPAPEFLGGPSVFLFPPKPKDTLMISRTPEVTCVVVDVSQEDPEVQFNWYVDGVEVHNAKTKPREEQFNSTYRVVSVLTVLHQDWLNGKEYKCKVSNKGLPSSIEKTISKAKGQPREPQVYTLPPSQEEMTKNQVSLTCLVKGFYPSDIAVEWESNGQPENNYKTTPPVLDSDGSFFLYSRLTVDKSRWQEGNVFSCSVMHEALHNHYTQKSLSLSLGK
light: B1 light
notes: Humanized anti-PD-1 antibody with the variable regions of 14C12H1L1(hG1WT), Ig gamma-4 chain C region (P01861.1) and Ig kappa chain C region (P01834)
B3: 14C12H1L1(hG1TM) (antibody, human IgG1, kappa)
heavy: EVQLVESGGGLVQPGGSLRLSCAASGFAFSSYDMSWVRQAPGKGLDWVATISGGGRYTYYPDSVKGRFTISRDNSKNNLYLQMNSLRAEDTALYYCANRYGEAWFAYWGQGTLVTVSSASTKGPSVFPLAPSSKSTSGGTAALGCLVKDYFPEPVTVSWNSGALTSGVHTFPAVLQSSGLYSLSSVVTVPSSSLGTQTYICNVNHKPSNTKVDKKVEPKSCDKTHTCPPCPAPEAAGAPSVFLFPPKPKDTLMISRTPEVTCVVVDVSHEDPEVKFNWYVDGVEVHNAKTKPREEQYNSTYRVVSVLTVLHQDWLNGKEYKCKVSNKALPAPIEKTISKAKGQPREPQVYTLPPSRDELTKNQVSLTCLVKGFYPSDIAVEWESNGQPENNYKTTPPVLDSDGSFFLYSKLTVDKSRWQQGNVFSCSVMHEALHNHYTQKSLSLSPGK
light: B1 light
notes: Humanized anti-PD-1 IgG1 mutant of 14C12H1L1(hG1WT) with L234A, L235A and G237A (EU numbering) in the heavy chain
B4: 14C12H1L1(hG1WT) (antibody, human IgG1, kappa)
heavy: not shown
light: B1 light
notes: Humanized anti-PD-1 antibody, wild-type human IgG1 constant region
B5: 5C10H2L2-IgG1mt (antibody)
chain 1: not shown
chain 2: EIVLTQSPDTLSVTPKEKVTLTCRASQSIGTNIHWFQQKPGQSPKLLIKYASESISGVPSRFSGSGSGTDFTLTINSVEAEDAATYYCQQSNSWPYTFGQGTKLEIKRTVAAPSVFIFPPSDEQLKSGTASVVCLLNNFYPREAKVQWKVDNALQSGNSQESVTEQDSKDSTYSLSSTLTLSKADYEKHKVYACEVTHQGLSSPVTKSFNRGEC

Legend:
[1] = molecular target: T1, Fc receptor FcγRIIIa_V158 (UniProt P08637 17-208); experiment: BLI (Fortebio Octet); sentence on Table 2, differs from the table's 6.12E-07
T1 sequence (P08637 17-208 F176V limits assumed): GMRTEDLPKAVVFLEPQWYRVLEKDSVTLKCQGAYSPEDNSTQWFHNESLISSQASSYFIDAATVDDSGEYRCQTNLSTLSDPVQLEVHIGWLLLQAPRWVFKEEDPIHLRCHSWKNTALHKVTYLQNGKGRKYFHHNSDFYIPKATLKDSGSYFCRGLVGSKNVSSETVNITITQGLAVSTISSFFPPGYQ
Protocol: (§1) 5 μg/mL FcγRIIIa_V158 was immobilized on the HIS1K sensor for 120 s. The sensor was equilibrated in a buffer for 60 s, and the binding of the immobilized FcγRIIIa_V158 on the sensor to the antibodies at concentrations of 31.25-500 nM (serial two-fold dilution) was determined for 60 s. The antibody was dissociated in the buffer for 60 s. The sensor was refreshed 4 times in 10 mM glycine pH 1.5, each for 5 s. The temperature was 30° C. and the frequency was 0.3 Hz. The data were analyzed by 1:1 model fitting to obtain affinity constants.

[2] = molecular target: T1, Fc receptor FcγRIIIa_V158; experiment: BLI (Fortebio Octet); FcγRIIIa_V158 on HIS1K sensor, antibody 31.25-500 nM; 1:1 fit
Protocol: as §1

[3] = molecular target: T2, Serum complement C1q (UniProt P02745 23-245; P02746 28-253; P02747 29-245); experiment: BLI (Fortebio Octet), antibody immobilised on FAB2G sensor, C1q in solution at 1.25-20 nM
T2 sequence (P02745 23-245 limits assumed, chain 1 of 3): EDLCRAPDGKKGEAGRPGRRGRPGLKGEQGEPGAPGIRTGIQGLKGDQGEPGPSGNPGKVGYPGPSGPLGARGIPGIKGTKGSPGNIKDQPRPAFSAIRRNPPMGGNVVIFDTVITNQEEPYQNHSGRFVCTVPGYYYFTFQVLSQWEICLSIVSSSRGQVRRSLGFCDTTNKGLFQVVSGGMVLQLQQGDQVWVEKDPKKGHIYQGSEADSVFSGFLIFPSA
T2 sequence (P02746 28-253 limits assumed, chain 2 of 3): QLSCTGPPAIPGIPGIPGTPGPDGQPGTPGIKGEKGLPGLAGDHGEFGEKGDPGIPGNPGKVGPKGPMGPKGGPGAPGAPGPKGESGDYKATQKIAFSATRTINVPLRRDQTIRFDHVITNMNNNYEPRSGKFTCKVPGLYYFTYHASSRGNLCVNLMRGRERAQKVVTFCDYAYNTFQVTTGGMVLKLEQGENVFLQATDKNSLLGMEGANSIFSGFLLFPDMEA
T2 sequence (P02747 29-245 limits assumed, chain 3 of 3): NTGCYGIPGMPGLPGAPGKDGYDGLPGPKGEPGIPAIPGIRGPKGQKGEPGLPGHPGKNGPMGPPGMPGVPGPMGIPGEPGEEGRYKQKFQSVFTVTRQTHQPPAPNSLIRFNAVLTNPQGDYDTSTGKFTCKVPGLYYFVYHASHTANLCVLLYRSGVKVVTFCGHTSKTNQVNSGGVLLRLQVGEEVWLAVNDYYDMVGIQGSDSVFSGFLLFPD
Protocol: (§2) 50 μg/mL antibody was immobilized on the FAB2G sensor at an immobilization height of about 2.0 nm. The sensor was equilibrated in a buffer for 60 s for blocking, and the binding of the immobilized antibody on the sensor to the antigen C1q at concentrations of 1.25-20 nM (serial two-fold dilution) was determined for 60 s. The antigen and antibody were dissociated in the buffer for 60 s. The sensor was refreshed 4 times in 10 mM glycine pH 1.7, each for 5 s. The shaking speed of the sample plate was 1000 rpm, the temperature was 30° C. and the frequency was 0.6 Hz. The data were analyzed by 1:1 model fitting to obtain affinity constants. The data acquisition software was Fortebio Data Acquisition 7.0, and the data analysis software was Fortebio Data Analysis 7.0.

[4] = molecular target: T3, Fc receptor FcγRIIb (human, UniProt P31994 43-217); experiment: BLI (Fortebio Octet), hFcγRIIb-his immobilised on NTA sensor, antibody in solution at 12.5-200 nM
T3 construct: also called CD32b; hFcγRIIb-his; not shown: his tag named in 'hFcγRIIb-his'
T3 sequence (looked up): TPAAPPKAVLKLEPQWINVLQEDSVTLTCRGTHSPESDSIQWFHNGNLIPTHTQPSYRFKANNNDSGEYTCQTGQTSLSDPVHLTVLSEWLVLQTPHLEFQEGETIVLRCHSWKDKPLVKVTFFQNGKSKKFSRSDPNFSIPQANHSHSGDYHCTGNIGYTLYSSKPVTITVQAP
Protocol: (§3) 5 μg/mL hFcγRIIb-his was immobilized on the NTA sensor at an immobilization height of about 1.0 nm. The sensor was equilibrated in a buffer of 0.02% Tween-20, 0.02% casein and 0.1% BSA in PBS, pH 7.4 for 300 s of blocking, and the binding of the immobilized hFcγRIIb-his on the sensor to the antibodies at concentrations of 12.5-200 nM (serial two-fold dilution) was determined for 60 s. The antibody was dissociated in the buffer for 60 s. The sensor was refreshed in 10 mM glycine pH 1.7 and […] nickel sulfate. The temperature was 30° C. and the frequency was 0.6 Hz. The data were analyzed by 1:1 model fitting to obtain affinity constants.

[5] = molecular target: T4, Fc receptor FcγRIIIa_F158 (UniProt P08637 17-208); experiment: BLI (Fortebio Octet), FcγRIIIa_F158 immobilised on HIS1K sensor, antibody in solution at 31.25-500 nM
T4 sequence (P08637 17-208 limits assumed): as the sequence (P08637 17-208 F176V limits assumed) above, with V160F counted along it
Protocol: as §1, with “FcγRIIIa_F158” for “FcγRIIIa_V158”

[6] = molecular target: T5, Fc receptor FcγRI (UniProt P12314 16-288); experiment: BLI (Fortebio Octet); FcγRI on HIS1K sensor, antibody 3.12-50 nM; 1:1 fit
T5 construct: also called CD64
T5 sequence (P12314 16-288 limits assumed): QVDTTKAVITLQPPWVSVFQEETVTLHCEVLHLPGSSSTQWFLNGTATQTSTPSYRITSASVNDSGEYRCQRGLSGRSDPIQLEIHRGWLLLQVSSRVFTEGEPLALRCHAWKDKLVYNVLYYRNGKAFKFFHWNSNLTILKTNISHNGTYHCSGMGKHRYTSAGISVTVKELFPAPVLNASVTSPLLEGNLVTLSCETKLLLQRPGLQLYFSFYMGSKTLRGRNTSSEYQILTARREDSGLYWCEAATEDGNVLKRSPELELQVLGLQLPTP
Protocol: (§4) The Fc receptor FcγRI, also known as CD64, can bind to the Fc fragment of IgG antibodies and is involved in antibody-dependent cell-mediated cytotoxicity (ADCC). The binding capacity of a therapeutic monoclonal antibody to Fc receptors will influence the safety and efficacy of the antibody. […] A 1 μg/mL FcγRI solution (from Sinobio) was added to the HIS1K sensor to immobilize the FcγRI on the sensor surface for 50 s. The association and dissociation constants of the antibodies to FcγRI were both determined in the buffer with the antibody concentrations being 3.12-50 nM (serial two-fold dilution). The sensor with immobilized antigen was equilibrated in the buffer for 60 s, and then the binding of the immobilized FcγRI on the sensor to the antibodies was determined for 120 s; the dissociation of FcγRI from the antibodies was determined in 120 s. The temperature was 30° C. and the frequency was 0.3 Hz. The data were fitted and analyzed with a 1:1 model to obtain the affinity constants to FcγRI for the antibodies.

[7] = molecular target: T6, Fc receptor FcγRIIa_H131 (UniProt P12318 34-218, limits assumed); experiment: BLI (Fortebio Octet); FcγRIIa_H131 on NTA sensor, antibody 12.5-200 nM; 1:1 fit
T6 sequence (looked up): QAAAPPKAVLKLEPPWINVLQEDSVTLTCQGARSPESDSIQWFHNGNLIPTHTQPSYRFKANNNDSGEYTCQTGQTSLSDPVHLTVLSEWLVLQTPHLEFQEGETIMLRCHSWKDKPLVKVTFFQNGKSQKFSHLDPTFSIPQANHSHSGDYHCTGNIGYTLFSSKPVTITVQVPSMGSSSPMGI
Protocol: as §3, with “FcγRIIa_H131” for “hFcγRIIb-his”

[8] = molecular target: T7, Fc receptor FcγRIIa_R131 (UniProt P12318 34-218, limits assumed); experiment: BLI (Fortebio Octet); FcγRIIa_R131 on NTA sensor, antibody 12.5-200 nM; 1:1 fit
T7 sequence (looked up): T6 sequence (looked up) with H134R
Protocol: as §3, with “FcγRIIa_R131” for “hFcγRIIb-his”

[9] = molecular target: T3, Fc receptor FcγRIIb; experiment: BLI (Fortebio Octet); hFcγRIIb-his on NTA sensor, antibody 12.5-200 nM; 1:1 fit
Protocol: as §3

[10] = molecular target: T5, Fc receptor FcγRI; experiment: BLI (Fortebio Octet), FcγRI immobilised on HIS1K sensor, antibody in solution at 3.12-50 nM
Protocol: as §4

[11] = molecular target: T6, Fc receptor FcγRIIa_H131; experiment: BLI (Fortebio Octet), FcγRIIa_H131 immobilised on NTA sensor, antibody in solution at 12.5-200 nM
Protocol: as §3, with “FcγRIIa_H131” for “hFcγRIIb-his”

[12] = molecular target: T1, Fc receptor FcγRIIIa_V158; experiment: BLI (Fortebio Octet), FcγRIIIa_V158 immobilised on HIS1K sensor, antibody in solution at 31.25-500 nM
Protocol: as §1

[13] = molecular target: T2, Serum complement C1q; experiment: BLI (Fortebio Octet); antibody on FAB2G sensor, C1q 1.25-20 nM; 1:1 fit
Protocol: as §2

[14] = molecular target: T4, Fc receptor FcγRIIIa_F158; experiment: BLI (Fortebio Octet); FcγRIIIa_F158 on HIS1K sensor, antibody 31.25-500 nM; 1:1 fit
Protocol: as §1, with “FcγRIIIa_F158” for “FcγRIIIa_V158”

Kd [2] | koff [2] | kon [2] | binding result [3] | binding result [4] | binding result [5] | Kd [6] | koff [6] | kon [6] | Kd [7] | koff [7] | kon [7] | Kd [8] | koff [8] | kon [8] | Kd [9] | koff [9] | kon [9] | Kd [13] | koff [13] | further results | Binder
612 nM | 0.0824 s⁻¹ | 135000 M⁻¹ s⁻¹ | no binding (tested: 20 nM) | no binding (tested: 200 nM) | no binding (tested: 500 nM) |  |  |  |  |  |  |  |  |  |  |  |  |  |  | Kd [1]: 621 nM | B1
 |  |  | no binding (tested: 20 nM) |  | no binding (tested: 500 nM) | 5.8 nM | 0.00369 s⁻¹ | 637000 M⁻¹ s⁻¹ | 50.7 nM | 0.013 s⁻¹ | 257000 M⁻¹ s⁻¹ | 31.3 nM | 0.011 s⁻¹ | 350000 M⁻¹ s⁻¹ | 56.2 nM | 0.0162 s⁻¹ | 288000 M⁻¹ s⁻¹ |  |  |  | B2
 |  |  | no binding (tested: 20 nM) | no binding (tested: 200 nM) | no binding (tested: 500 nM) |  |  |  |  |  |  | 232 nM | 0.0938 s⁻¹ | 404000 M⁻¹ s⁻¹ |  |  |  |  |  | binding result [10]: no binding (tested: 50 nM); binding result [11]: no binding (tested: 200 nM); binding result [12]: no binding (tested: 500 nM) | B3
65.4 nM | 0.0171 s⁻¹ | 261000 M⁻¹ s⁻¹ |  |  |  | 2.52 nM | 0.00175 s⁻¹ | 694000 M⁻¹ s⁻¹ | 57.4 nM | 0.0267 s⁻¹ | 465000 M⁻¹ s⁻¹ | 34.6 nM | 0.0228 s⁻¹ | 660000 M⁻¹ s⁻¹ | 61.3 nM | 0.0195 s⁻¹ | 318000 M⁻¹ s⁻¹ | 1.35 nM | 0.00654 s⁻¹ | kon [13]: 4.83e+06 M⁻¹ s⁻¹; Kd [14]: 102 nM; koff [14]: 0.0256 s⁻¹; kon [14]: 252000 M⁻¹ s⁻¹ | B4
 |  |  |  |  |  |  |  |  |  |  |  |  |  |  |  |  |  | 4.43 nM | 0.0105 s⁻¹ | kon [13]: 2.38e+06 M⁻¹ s⁻¹ | B5
